Source: patent publication US20250313625A1 (ELPISCIENCE SUZHOU BIOPHARMA, published 2025)

Columns and labels:
[1] = target: T1, human LAG3 (form used in Octet, Biacore and HDX-MS not given) (human, UniProt P18627 23-450, limits assumed); test: BLI (Octet)
T1 sequence (looked up): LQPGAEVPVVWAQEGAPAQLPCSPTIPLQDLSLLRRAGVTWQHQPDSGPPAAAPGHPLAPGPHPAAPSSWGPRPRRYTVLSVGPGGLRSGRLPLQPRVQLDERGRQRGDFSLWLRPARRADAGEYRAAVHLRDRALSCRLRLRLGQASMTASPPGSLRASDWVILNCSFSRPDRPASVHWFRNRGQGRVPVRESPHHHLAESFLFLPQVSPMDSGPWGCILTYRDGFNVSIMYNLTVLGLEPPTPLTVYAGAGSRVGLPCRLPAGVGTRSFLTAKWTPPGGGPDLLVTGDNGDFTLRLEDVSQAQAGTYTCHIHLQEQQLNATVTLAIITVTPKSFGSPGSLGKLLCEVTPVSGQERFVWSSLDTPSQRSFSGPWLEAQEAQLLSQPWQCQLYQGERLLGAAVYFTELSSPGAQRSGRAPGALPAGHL

[2] = target: T1, human LAG3 (form used in Octet, Biacore …); test: SPR (Biacore), 1:1 fit
Procedure: The association and dissociation curves were fit with 1:1 binding model, and the Ka/Kd/KD values for each antibody were calculated.

[3] = target: T2, human LAG3, full length, stably expressed on cells (human, UniProt P18627 23-525); test: FACS on 293F cells stably expressing human LAG3
T2 construct: whole, on cells; also called CHOK1-human LAG3
T2 sequence (looked up): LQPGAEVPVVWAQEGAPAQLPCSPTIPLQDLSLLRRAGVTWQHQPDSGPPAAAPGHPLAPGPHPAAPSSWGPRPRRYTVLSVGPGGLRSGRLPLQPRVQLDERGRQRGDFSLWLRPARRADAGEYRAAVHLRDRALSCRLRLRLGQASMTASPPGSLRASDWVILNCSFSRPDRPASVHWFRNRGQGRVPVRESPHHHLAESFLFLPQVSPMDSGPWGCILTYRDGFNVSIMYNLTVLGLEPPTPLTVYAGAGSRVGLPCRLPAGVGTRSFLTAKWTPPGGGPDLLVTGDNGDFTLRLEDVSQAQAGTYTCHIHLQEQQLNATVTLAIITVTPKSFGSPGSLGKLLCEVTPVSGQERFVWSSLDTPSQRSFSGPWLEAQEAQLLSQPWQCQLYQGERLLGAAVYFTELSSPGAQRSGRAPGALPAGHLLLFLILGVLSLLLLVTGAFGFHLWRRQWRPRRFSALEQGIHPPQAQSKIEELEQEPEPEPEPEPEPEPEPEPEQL
Procedure: Briefly the antibodies were incubated with 2×10⁵ target cells at 4° C. for 1 hour. After washing, fluorescence labeled anti-mouse IgG 2nd antibody (Life Technologies) was added and incubated at 4° C. for 1 hour. Geometric median fluorescence intensity (MFI) was detected and EC₅₀ was calculated using GraphPad Prism9.0.
MFI was detected and EC₅₀ was calculated using GraphPad Prism9.0.

[4] = target: T3, mFc tagged human LAG3 ECD recombinant protein (human, UniProt P18627 23-450); test: competitive FACS: mFc-LAG3 ECD binding to Raji cells (MHC II)
T3 construct: extracellular domain; purchased from Biointron; not shown: mouse IgG Fc (mFc) tag
T3 sequence (looked up): T1 sequence (looked up)
Procedure: Activity of the purified chimeric antibodies to block LAG3 and MHC II interaction was determined by competitive FACS assay. […] After washing, dye labeled anti-mouse Fc 2nd antibody (Sigma) was added and incubated at 37° C. for 1 hour. Fluorescence intensity was detected.

[5] = target: T4, human LAG3 ECD recombinant protein (plate coated, tag not stated) (human, UniProt P18627 23-450); test: competitive ELISA format I: His-FGL1 binding to coated LAG3 ECD
T4 construct: extracellular domain
T4 sequence (looked up): T1 sequence (looked up)

[6] = target: T5, hFc tagged human LAG3 ECD recombinant protein (human, UniProt P18627 23-450); test: competitive ELISA format II: biotin hFc-LAG3 ECD binding to coated His-FGL1
T5 construct: range 23-450; also called biotin labelled hFc tagged human LAG3 ECD; not shown: human IgG Fc tag
T5 sequence (looked up): T1 sequence (looked up)
Procedure: After washing, HRP labeled anti-His 2nd antibody (Sigma) was added and incubated at 37° C. for 1 hour. Then, 100 μl/well of TMB solution (Biotechnology) was added. After incubation for 15 minutes at room temperature, the reaction was stopped by the addition of 50 μl of 1N HCl. OD 450 nm was read. […] After washing, HRP labeled anti-SA 2nd antibody (Sigma) was added and incubated at 37° C. for 1 hour. Then, 100 μl/well of TMB solution (Biotechnology) was added. After incubation for 15 minutes at room temperature, the reaction was stopped by the addition of 50 μl of 1N HCl. OD 450 nm was read. […] The competition assay of format III is a competitive FACS assay. […] After washing, dye labeled anti-His 2nd antibody (Sigma) was added and incubated at 37° C. for 1 hour. Fluorescence intensity was detected.

[7] = target: T3, mFc tagged human LAG3 ECD recombinant …; test: competitive ELISA: mFc tagged human LAG3 ECD binding to plate coated LSECtin ECD
Procedure: Activity of the purified chimeric antibodies to block LAG3 and LSECtin interaction was determined by competitive ELISA assay. […] After washing, HRP labeled anti-mouse Fc 2nd antibody (Sigma) was added and incubated at 37° C. for 1 hour. Then, 100 μl/well of TMB solution (Biotechnology) was added. After incubation for 15 minutes at room temperature, the reaction was stopped by the addition of 50 μl of 1N HCl. OD 450 nm was read.

Kd [1]: 456 pM
koff [1]: 0.000161 s⁻¹
kon [1]: 352000 M⁻¹ s⁻¹
Kd [2]: 77.5 pM
koff [2]: 0.000441 s⁻¹
kon [2]: 5.68e+06 M⁻¹ s⁻¹
EC50 [3]: 260 pM
TOP MFI [3]: 3430
IC50 [4]: 3700 pM
TOP blocking (%) [4]: 94.6%
Blocking ratio at 66.7 nM (%) [5]: 52.9%
IC50 [6]: 1500 pM
TOP blocking (%) [6]: 82.8%
%Blocking at 4 nM [7]: 27.8%
%Blocking at 20 nM [7]: 94.4%
%Blocking at 100 nM [7]: 94.8%
B1: 023c (antibody, human IgG4, V domains shown)
VH: QIQLVQSGPVLKKPGETVKISCKASGYTFTESPMNWVKQAPGRGFKWMGMIYTDTGEPTYAEEFKGRFAFSLETSASTAYLQINNLKSEDTATYFCVSDYGSILYWYFDVWGTGTTVTVSS
VL: DIVMTQSHKFMSTSVGDRVSITCKASQDVSTAVAWYQQTPGQSPKLLIYSASYRYTGVPDRFTGSGSGTDFTFTISSVQAEDLAVYYCQQHYNSPPTFGAGTKLELK
notes: human IgG4 S228P / kappa chimeric antibody; also called chimeric antibody 023; ES005-023c; not shown: human kappa light chain constant region (pcDNA3.4-hIgGk vector)
